The record followed here is the supplement of paper PMC12042874.

± gives the uncertainty stated by the source.

The series is described as follows: amyloid nucleation score (Sup35N fusion, yeast selection) (log enrichment); library NNK2; higher = more nucleation; inactive = no reads after selection. The gist of the method:
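Plasmid inserts were Illumina-sequenced at input and output from psi-negative yeast expressing Sup35N fused to peptides of 20 random codons. The yeast were induced with 100 μM copper sulfate for 24 hours and grown 7 days at 30°C on medium lacking adenine and uracil, and sequences with under 100 input reads were excluded. Nucleation score is the DiMSum log enrichment of output over input reads, centred on the mode score of non-aggregating sequences.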
In turn, NMNGF showed an amyloid nucleation score of -0.532 ± 1.

For NMRTNLWNIIAFLSSRSIAQ, the amyloid nucleation score is 0.857 ± 0.35.

In turn, NMSCKFSNPWNWFD yielded an amyloid nucleation score of -0.11 ± 0.39.

For the substance NMWTFRSIMIPALFYEIFIA, the amyloid nucleation score is -1.75 ± 0.54.

As for NNDDQSFCAWVFNDVQ, the amyloid nucleation score came to 0.056 ± 0.6.

Substance NNDYFTEGAGKGVTLIGALG had an amyloid nucleation score of 4.443 ± 0.041.

Consider NNGMFGNFSKSDYFDKWRYM, for which the amyloid nucleation score entry is “inactive”.

The substance NNKLSRV gave an amyloid nucleation score of -0.661 ± 1.1.

NNLKLCNRTMCLVYEVCVTD showed an amyloid nucleation score of -1.23 ± 0.62.

For NNRYELCSSQH, the amyloid nucleation score result is “inactive”.

Regarding NNSGSNKSD, the amyloid nucleation score was -0.509 ± 0.78.

As for NNVSLPYMSSIVIIGLIRR, the amyloid nucleation score was 7.193 ± 0.057.

Substance NPSFNESFLSGSQKVQILMG came in with an amyloid nucleation score of -0.509 ± 1.1.

As to NPSLELYKYISAIDMGINPP, the amyloid nucleation score result is “inactive”.

In turn, NPTLGHKNVFVRYSF yielded an amyloid nucleation score of 2.9 ± 0.14.

Turning to NPYINLLRFIDSDSSALV, the amyloid nucleation score was -1.35 ± 1.1.

For the substance NQAYR, the amyloid nucleation score was 0.12 ± 0.43.

In turn, NQCAVQGLYRRRMVHDRQED yielded an amyloid nucleation score of -0.52 ± 0.78.

Consider NQVFSIALAQNRSRHFFLGG, for which the amyloid nucleation score result was “inactive”.

With NRADGDKFSSSPSPTWKYME, the amyloid nucleation score was -0.081 ± 1.1.

In the case of NRCLGIT, the amyloid nucleation score amounted to 0.231 ± 0.48.

Substance NRECCTSDLRIMNVLRPL displayed an amyloid nucleation score of -0.028 ± 0.18.

With NREIGISWEGWMMLKILQYK, the amyloid nucleation score entry was “inactive”.

Regarding NRFDDVSDDVKTCC, the amyloid nucleation score turned out to be 5.82 ± 0.059.

NRGFFGSYGVPELQNMDQFE yielded an amyloid nucleation score of 0.153 ± 0.79.

NRIGLCRGLNQFFLPGMWSR displayed an amyloid nucleation score of 0.283 ± 0.26.

NRISGLGMSSKGKRGKVMLK had an amyloid nucleation score of 0.493 ± 0.46.

The substance NRKFARWLLLT gave an amyloid nucleation score of -0.492 ± 0.61.

For NRLSELGPCFHLFTSV, the amyloid nucleation score turned out to be 0.089 ± 1.1.

NRMRVMAWCAILNKELSGGK displayed an amyloid nucleation score of 0.93 ± 0.51.

On to NRPLCSFDTEFDLYEQIHLR, for which the amyloid nucleation score is 4.38 ± 0.086.

On to NRSTRGWGVVSTLCYRLSSF, for which the amyloid nucleation score result was “inactive”.

Take NRWLYFHS: the amyloid nucleation score was -0.678 ± 0.76.

In turn, NRWYKLRLYICYDLRIAVFN returned an amyloid nucleation score of -1.58 ± 1.1.

NSDRL: the amyloid nucleation score was -0.794 ± 0.45.

The substance NSFVCMLPGVFVKCRCSNAD returned an amyloid nucleation score of 4.832 ± 0.044.

In turn, NSGYIGLGLSF had an amyloid nucleation score of -0.224 ± 0.65.

In turn, NSLANDTQIRKNCLSIV gave an amyloid nucleation score of -0.474 ± 1.1.

In turn, NSLLVFQNNFGIETNGVNII registered an amyloid nucleation score of 0.94 ± 0.74.

Take NSSRL: the amyloid nucleation score is -0.166 ± 1.1.

In turn, NSTFLCLVGFFCLVFSLRQG had an amyloid nucleation score of 3.77 ± 0.1.

NSTLRSLYTVFFIRMLQMVG: the amyloid nucleation score is -0.753 ± 0.36.

NSVRFSRLKRFSNCMFNHWR: the amyloid nucleation score came to 0.284 ± 0.65.

In the case of NTATSN, the amyloid nucleation score is -0.22 ± 1.1.

In the case of NTFWLGFPYSLLQALCHALD, the amyloid nucleation score was found to be 0.447 ± 0.53.

For the substance NTLEPWMKYSMCLFDKISPT, the amyloid nucleation score is -0.391 ± 0.49.

The substance NTLITRVHHDQLPRLSDLLL returned an amyloid nucleation score of 1.28 ± 0.38.

NTRCQFSTIGHFAASHDRRD: the amyloid nucleation score amounted to 1.17 ± 0.21.

For NTSIQQIPLMSRLGVAFVIW, the amyloid nucleation score is -0.781 ± 0.54.

In turn, NTTQAV yielded an amyloid nucleation score of -0.249 ± 1.

For NTVHWSDSCRLFPHRDQQCF, the amyloid nucleation score is -0.694 ± 0.61.

For the substance NTWTCAQPRVTLLAQLYELN, the amyloid nucleation score was determined as 3.1 ± 0.12.

With NTYYFKALT, the amyloid nucleation score was 0.072 ± 1.1.

NVAHGW registered an amyloid nucleation score of -0.322 ± 0.44.

Turning to NVFKGPVLHGFRDRISWVKD, the amyloid nucleation score result is “inactive”.

NVGTRWSGDARNMFSSKGGK registered an amyloid nucleation score of 0.83 ± 0.31.

Turning to NVGYWYCLD, the amyloid nucleation score is 8.808 ± 0.033.

Substance NVHDEWKGFVSGTCGKVEKA had an amyloid nucleation score of 0.355 ± 0.29.

Substance NVHFFCWCFLNLCV came in with an amyloid nucleation score of -0.558 ± 1.

NVLDASRNLE had an amyloid nucleation score of 1.14 ± 0.42.

Substance NVLGQNAQPPNMDFYVTMIC had an amyloid nucleation score of 0.508 ± 0.56.

Consider NVPFCIVV, for which the amyloid nucleation score was 0.213 ± 0.57.

NVRDMCLSACTSQWYYYFAV displayed an amyloid nucleation score of 0.371 ± 0.37.

NVVKTWPIYIMRPLWTAHSN registered an amyloid nucleation score of -0.641 ± 0.31.

As for NWDKKKGRDR, the amyloid nucleation score entry was “inactive”.

Regarding NWDSINFYRAVSYCDHIFYV, the amyloid nucleation score result was “inactive”.

The substance NWLGCEMPIGGSSSVSAMYL yielded an amyloid nucleation score of 1.17 ± 0.21.

The substance NWLQDK displayed an amyloid nucleation score of 1.61 ± 0.55.

Substance NWLQGVYCCGKVIGSLTSTD returned an amyloid nucleation score of 8.775 ± 0.043.

The substance NYFVYNFLVV returned an amyloid nucleation score of 4.95 ± 0.099.

NYIMWLWQQTGWSNGWCALI registered an amyloid nucleation score of 0.312 ± 0.61.

Substance NYIWFVNPYRRFSHVNHITN displayed an amyloid nucleation score of -0.176 ± 1.1.

On to NYKNVVSFLVR, for which the amyloid nucleation score result was “inactive”.

NYMRYTYHSMCVLWFTVGEC returned an amyloid nucleation score of 0.864 ± 0.41.

Substance NYPSVGSDIARLLRLVTRRI showed an amyloid nucleation score of -0.313 ± 0.76.

On to NYTWSNTRLNYPLRVNATNH, for which the amyloid nucleation score was -1.01 ± 1.1.

As for NYWCMVV, the amyloid nucleation score worked out at 5.24 ± 0.075.

As for PAITFSSYQSIANYWRGPRM, the amyloid nucleation score was determined as 7.899 ± 0.026.

For the substance PARLCAVVL, the amyloid nucleation score worked out at 0.066 ± 0.76.

Substance PASNWIRYRMTFQDGPYVKR had an amyloid nucleation score of 0.373 ± 0.66.

PCITRTARSQIVTFKRG had an amyloid nucleation score of -0.35 ± 1.1.

PCKNIMVYNSLTDAWPCLYM yielded an amyloid nucleation score of 0.093 ± 0.8.

PCLKGVITLLLKGPGPHRVN had an amyloid nucleation score of 0.091 ± 0.42.

Take PCRRYRVLFWGGSLVSSMGK: the amyloid nucleation score worked out at 3.3 ± 0.07.

Regarding PDGAWARLSKSGAEAYLSNF, the amyloid nucleation score is -0.299 ± 1.1.

For PDHKLARTIYWAPCTMDWVI, the amyloid nucleation score was -0.057 ± 0.61.

For PDLRKDYAWLLLFLVRVRGD, the amyloid nucleation score turned out to be 4.43 ± 0.085.

In turn, PDSMGKVIYYKSESCFYSRG had an amyloid nucleation score of 2.72 ± 0.086.

For PDWMRGSSEYWSVGPRYCNS, the amyloid nucleation score is 0.355 ± 0.13.

For PFFVV, the amyloid nucleation score was -0.791 ± 1.1.

PFSWVASDNTYQSTSLSIVH yielded an amyloid nucleation score of 0.995 ± 0.51.

Substance PGFKSCIP yielded an amyloid nucleation score of 0.598 ± 0.28.

For the substance PGHNQKERLLQLRSI, the amyloid nucleation score result is “inactive”.

The substance PGRDTVTLLHLCHFGVGSGF came in with an amyloid nucleation score of 0.165 ± 1.

In turn, PGSNALVGLTIRCNVILKGG displayed an amyloid nucleation score of 4.68 ± 0.086.

As to PGTKLLSSVNAQRDSLKKGG, the amyloid nucleation score is -0.478 ± 0.4.

Turning to PGYVAWRIFFFGPVI, the amyloid nucleation score was 0.007 ± 1.1.

With PHHWTQWSVKMSGFRSLLRR, the amyloid nucleation score was 1.19 ± 0.13.

For PHPIDNKRMTTPNIADAPPR, the amyloid nucleation score came out at 0.56 ± 0.74.

Substance PIGLYRSMATQVNCC showed an amyloid nucleation score of 3.71 ± 0.094.

PIITFNTI came in with an amyloid nucleation score of -0.637 ± 1.1.

On to PISWGRLFNMVPR, for which the amyloid nucleation score was -0.98 ± 0.55.

PKNLILLSHFYSEAVCPGAR: the amyloid nucleation score was -0.927 ± 1.1.

For the substance PLGSMTNDTTDRNFEVSGRG, the amyloid nucleation score is -0.106 ± 0.31.

With PLGTSTTSFRSAVFQGMTWL, the amyloid nucleation score result was “inactive”.

PLGYGMGLRGLFGLLDSYFG returned an amyloid nucleation score of 0.19 ± 0.8.

As for PLISRYDYFVCIRILSHSDN, the amyloid nucleation score was found to be 0.98 ± 0.81.

In turn, PLLVLVNFLSGKSPQAHCSH returned an amyloid nucleation score of 3.07 ± 0.077.

PLQPNAIRRSMVSF had an amyloid nucleation score of 0.894 ± 0.43.

PLSPFTHGLSQYIALEIDGQ had an amyloid nucleation score of -0.254 ± 0.63.

Regarding PMEWKPALPKTIVADARMRG, the amyloid nucleation score was 0.48 ± 0.3.

The substance PMRKADRYSSSSET registered an amyloid nucleation score of -0.479 ± 1.

In turn, PNRTFLLKVGA had an amyloid nucleation score of -1.1 ± 1.1.

As for PNSGFSGNCIKVIQHNLQG, the amyloid nucleation score result was “inactive”.

For PNSLYGYKIAFSLDFFVRVY, the amyloid nucleation score entry was “inactive”.

In turn, PNWPR gave an amyloid nucleation score of 0.512 ± 0.66.

For the substance PPCYALDRFLSGSLTVLSPV, the amyloid nucleation score was -0.36 ± 0.35.

Substance PPDSTWYC registered an amyloid nucleation score of 0.452 ± 0.53.

On to PPGFMYLYCGLYAQSSRSSW, for which the amyloid nucleation score amounted to 0.546 ± 0.5.

In turn, PPHRAYGILMMNTRRTSSIT came in with an amyloid nucleation score of 0.604 ± 0.37.

In turn, PPLYSFVQYMRGFANNVISG showed an amyloid nucleation score of 0.227 ± 0.49.

Regarding PPNRVNGNW, the amyloid nucleation score is 0.853 ± 0.57.

As to PPNVLDCFNVL, the amyloid nucleation score was -0.501 ± 0.64.

The substance PPWCLNVCDMLRRSHLAFKR yielded an amyloid nucleation score of -0.213 ± 1.1.

PQINMGVLAGGVYHYSTCGK had an amyloid nucleation score of 0.196 ± 0.74.

Substance PQSWIVHRTIVHGSLGSCFP came in with an amyloid nucleation score of -0.4 ± 0.3.

In turn, PRDRLSSGPLQWHGFIIGYV displayed an amyloid nucleation score of 0.676 ± 0.23.

For the substance PRIFFYVNLFLRHWPEIKML, the amyloid nucleation score was -2.08 ± 1.1.

The substance PRLRAAG came in with an amyloid nucleation score of 0.758 ± 0.26.

For PRNRQRSNSTDCGHLITYWD, the amyloid nucleation score turned out to be 0.205 ± 0.62.

Take PRRCSISIEFRDE: the amyloid nucleation score was -0.718 ± 0.76.

The substance PRSNCLHCFLLPLSNIVLCA registered an amyloid nucleation score of 4.66 ± 0.049.

Regarding PRSQYRITYDYVCCRVMYKY, the amyloid nucleation score amounted to 0.392 ± 0.46.

Substance PRSYWRSYWAKVLDYQLIPR yielded an amyloid nucleation score of 3.55 ± 0.07.

For the substance PSDFYWSMFEQYCHGV, the amyloid nucleation score turned out to be 4.51 ± 0.05.

In turn, PSGGFTTSMVTDDIDVSARH registered an amyloid nucleation score of 0.708 ± 0.53.

Turning to PSIKCTLFYSVTYLFMWGRK, the amyloid nucleation score is -0.406 ± 0.63.

Substance PSLRSSCCWNFRPP registered an amyloid nucleation score of 0.175 ± 0.42.

PSNKYSDVPSNAQSGFAWYG showed an amyloid nucleation score of 0.56 ± 0.57.

Substance PSNTIYHFIAELNEYETPRF had an amyloid nucleation score of 0.426 ± 0.15.
